# Experimental data as given in paper PMC6200986.
# System: YlxR (Bacillus subtilis 168)
# Experiment: EMSA
# Conditions: 10 mM Tris-HCl pH 8.0, 100 mM KCl, 10 mM MgCl2, 1 mM DTT, 10% glycerol, 12 ul; 1% agarose gel in Tris-acetate-EDTA, loaded immediately after protein addition …
substance,measurement,value
pET28b(+) supercoiled,Kd,0.1 µM
